T1: human TAT226 expressed on the surface of OVCAR3 cells (human, UniProt Q8N2G4 21-117)
T1 sequence: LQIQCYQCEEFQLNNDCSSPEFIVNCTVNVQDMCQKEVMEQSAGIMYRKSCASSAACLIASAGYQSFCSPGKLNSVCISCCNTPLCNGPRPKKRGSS

T2: recombinant gD:human TAT226 fusion protein expressed on HCT116#9-4 cells (herpes simplex virus type 1; human, UniProt Q8N2G4 23-141)
T2 sequence: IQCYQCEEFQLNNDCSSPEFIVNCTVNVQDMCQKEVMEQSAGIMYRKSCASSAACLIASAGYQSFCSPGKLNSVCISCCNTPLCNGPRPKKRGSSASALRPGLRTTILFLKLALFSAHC

T3: recombinant TAT226-His fusion protein (human, UniProt Q8N2G4 21-115)
T3 construct: also called recombinant antigen; not shown: C-terminal polyhistidine tag
T3 sequence: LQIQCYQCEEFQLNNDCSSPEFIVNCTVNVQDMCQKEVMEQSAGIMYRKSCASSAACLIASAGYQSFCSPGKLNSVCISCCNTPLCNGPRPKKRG


Tests used:
[1] = target: T1, human TAT226 expressed on the surface …; test: cell-based or functional assay
[2] = target: T2, recombinant gD:human TAT226 fusion …; test: cell-based or functional assay
[3] = target: T3, recombinant TAT226-His fusion protein; test: SPR, BIACORE 3000, IgG immobilised on CM5 chip, TAT226-His injected (0.7-500 nM), 25 C
Experimental: The binding affinity of YWO.49, YWO.49.B7, YWO.49.C9, YWO.49.H2, and YWO.49.H6 for recombinant antigen was determined by surface plasmon resonance measurement using a BIACORE® 3000 system (Biacore, Inc., Piscataway, N.J.). Briefly, carboxymethylated dextran biosensor chips (CM5, Biacore Inc.) were activated with N-ethyl-N′-(3-dimethylaminopropyl)-carbodiimide hydrochloride (EDC) and N-hydroxysuccinimide (NHS) according to the supplier's instructions. Anti-TAT226 antibody was diluted to 5 ug/ml with 10 mM sodium acetate, pH 4.8, before injection at a flow rate of 5 μl/minute to achieve approximately 500 response units (RU) of coupled antibody. Next, 1M ethanolamine was injected to block unreacted groups. For kinetics measurements, two-fold serial dilutions of TAT226-His (0.7 nM to 500 nM) were injected in PBS with 0.05% Tween 20 at 25° C. at a flow rate of 25 μl/min Association rates (kₒₙ) and dissociation rates (koff) were calculated using a simple one-to-one Langmuir binding model (BIAevaluation Software version 3.2). The equilibrium dissociation constant (Kd) was calculated as the ratio koff/kₒₙ.

[4] = target: T1, human TAT226 expressed on the surface …; test: competition of iodinated antibody with unlabeled antibody on OVCAR3 cells, Scatchard analysis
Experimental: The binding affinity of YWO.49.H2 and YWO.49.H6 for TAT226 expressed on the surface of OVCAR3 cells was examined using a competition assay. Briefly, labeled (iodinated) YWO.49.H2 or YWO.49.H6 was allowed to bind to OVCAR3 cells in the presence of unlabeled antibody. Binding affinity of the antibodies was determined in accordance with the Scatchard analysis methodology initially described in Munson et al., Anal. Biochem. 107:220 (1980).

Row | Binder | IC50, OVCAR3 in vitro cell killing assay (CellTiter-Glo, 5 days) [1] [pM] | IC50, in vitro cell killing assay on HCT116#9-4 transfectants (CellTiter-Glo, 3 days) [2] [pM] | Kd [3] [pM] | Kd [4] [pM]
1 | YWO.49.H2-MC-vc-PAB-MMAF (antibody, V domains shown, MC-vc-PAB-MMAF conjugated to cysteine residues of the partially reduced antibody; average drug load 4.7 per antibody) VH: EVQLVESGGGLVQPGGSLRLSCAASGFTITNYGIHWVRQAPGKGLEWVGRIYPDSGATYYADSVKGRFTISADTSKNTAYLQMNSLRAEDTAVYYCARKLWVSLAPMDYWGQGTLVTVSS VL: DIQMTQSPSSLSASVGDRVTITCRASQDVSTAVAWYQQKPGKAPKLLIYSASFLYSGVPSRFSGSGSGTDFTLTISSLQPEDFATYYCQQSYGTPFIFGQGTKVEIKR | ~5 | ~50 | – | –
2 | YWO.49.H6-MC-vc-PAB-MMAF (antibody, V domains shown, MC-vc-PAB-MMAF conjugated to cysteine residues of the partially reduced antibody; average drug load 4.4 per antibody) VH: EVQLVESGGGLVQPGGSLRLSCAASGFTITNYGIHWVRQAPGKGLEWVGRIYPDSGATYYADSVKGRFTISADTSKNTAYLQMNSLRAEDTAVYYCARKLWISIAGMDYWGQGTLVTVSS VL: DIQMTQSPSSLSASVGDRVTITCRASQDVSTAVAWYQQKPGKAPKLLIYSASFLYSGVPSRFSGSGSGTDFTLTISSLQPEDFATYYCQHSYATPFTFGQGTKVEIKR | ~5 | ~50 | – | –
3 | YWO.49.H2-MC-vc-PAB-MMAE (antibody, V domains shown, MC-vc-PAB-MMAE conjugated to cysteine residues of the partially reduced antibody; average drug load 3.8 per antibody) VH: EVQLVESGGGLVQPGGSLRLSCAASGFTITNYGIHWVRQAPGKGLEWVGRIYPDSGATYYADSVKGRFTISADTSKNTAYLQMNSLRAEDTAVYYCARKLWVSLAPMDYWGQGTLVTVSS VL: DIQMTQSPSSLSASVGDRVTITCRASQDVSTAVAWYQQKPGKAPKLLIYSASFLYSGVPSRFSGSGSGTDFTLTISSLQPEDFATYYCQQSYGTPFIFGQGTKVEIKR | ~200 | – | – | –
4 | YWO.49 (antibody, V domains shown, detected with anti-human IgG; also called anti-TAT226 monoclonal antibody YWO.49) VH: EVQLVESGGGLVQPGGSLRLSCAASGFTITNYGIHWVRQAPGKGLEWVGRIYPDSGATYYADSVKGRFTISADTSKNTAYLQMNSLRAEDTAVYYCARKLWVSRAGMDYWGQGTLVTVSS VL: DIQMTQSPSSLSASVGDRVTITCRASQDVSTAVAWYQQKPGKAPKLLIYSASFLYSGVPSRFSGSGSGTDFTLTISSLQPEDFATYYCQQSYTTPPTFGQGTKVEIKR | – | – | 47200 | –
5 | YWO.49.H6-MC-vc-PAB-MMAE (antibody, V domains shown, MC-vc-PAB-MMAE conjugated to cysteine residues of the partially reduced antibody; average drug load 4.4 per antibody) VH: EVQLVESGGGLVQPGGSLRLSCAASGFTITNYGIHWVRQAPGKGLEWVGRIYPDSGATYYADSVKGRFTISADTSKNTAYLQMNSLRAEDTAVYYCARKLWISIAGMDYWGQGTLVTVSS VL: DIQMTQSPSSLSASVGDRVTITCRASQDVSTAVAWYQQKPGKAPKLLIYSASFLYSGVPSRFSGSGSGTDFTLTISSLQPEDFATYYCQHSYATPFTFGQGTKVEIKR | ~200 | – | – | –
6 | YWO.49.H6 (antibody, V domains shown, also called YWO.H6) VH: EVQLVESGGGLVQPGGSLRLSCAASGFTITNYGIHWVRQAPGKGLEWVGRIYPDSGATYYADSVKGRFTISADTSKNTAYLQMNSLRAEDTAVYYCARKLWISIAGMDYWGQGTLVTVSS VL: DIQMTQSPSSLSASVGDRVTITCRASQDVSTAVAWYQQKPGKAPKLLIYSASFLYSGVPSRFSGSGSGTDFTLTISSLQPEDFATYYCQHSYATPFTFGQGTKVEIKR | – | – | 50 | 404
7 | YWO.49.H2 (antibody, V domains shown) VH: EVQLVESGGGLVQPGGSLRLSCAASGFTITNYGIHWVRQAPGKGLEWVGRIYPDSGATYYADSVKGRFTISADTSKNTAYLQMNSLRAEDTAVYYCARKLWVSLAPMDYWGQGTLVTVSS VL: DIQMTQSPSSLSASVGDRVTITCRASQDVSTAVAWYQQKPGKAPKLLIYSASFLYSGVPSRFSGSGSGTDFTLTISSLQPEDFATYYCQQSYGTPFIFGQGTKVEIKR | – | – | 230 | 348
8 | YWO.49.C9 (antibody, V domains shown) VH: EVQLVESGGGLVQPGGSLRLSCAASGFTITNYGIHWVRQAPGKGLEWVGRIYPDSGATYYADSVKGRFTISADTSKNTAYLQMNSLRAEDTAVYYCARKLWVTLASMDYWGQGTLVTVSS VL: DIQMTQSPSSLSASVGDRVTITCRASQDVSTAVAWYQQKPGKAPKLLIYSASFLYSGVPSRFSGSGSGTDFTLTISSLQPEDFATYYCQKSYNTPPTFGQGTKVEIKR | – | – | < 30 | –
9 | YWO.49.B7 (antibody, V domains shown) VH: EVQLVESGGGLVQPGGSLRLSCAASGFTITNYGIHWVRQAPGKGLEWVGRIYPDSGATYYADSVKGRFTISADTSKNTAYLQMNSLRAEDTAVYYCARKLWVSLAAMDYWGQGTLVTVSS VL: DIQMTQSPSSLSASVGDRVTITCRASQDVSTAVAWYQQKPGKAPKLLIYSASFLYSGVPSRFSGSGSGTDFTLTISSLQPEDFATYYCQRSVFTPPAFGQGTKVEIKR | – | – | < 180 | –

Reference: patent US20120100159A1 (Genentech, published 2012)
